Positions count from the first letter of the chain named.

The record followed here is patent publication US20240059799A1 (Pfizer, published 2024).

The chains are these.
T1: recombinant human TL1A (human, UniProt O95150 71-251)
T1 construct: homotrimer; biotinylated for SPR capture; the ELISA paragraphs say only 'recombinant TL1A'; also called TNFSF15
T1 chain: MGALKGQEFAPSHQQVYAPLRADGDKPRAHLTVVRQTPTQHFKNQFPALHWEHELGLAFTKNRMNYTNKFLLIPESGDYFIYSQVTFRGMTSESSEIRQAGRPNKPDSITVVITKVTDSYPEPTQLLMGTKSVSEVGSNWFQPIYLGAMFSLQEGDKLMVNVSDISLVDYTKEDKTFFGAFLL

B1: TL1A-0013 (antibody, IgG1, V domains shown)
VH: QVQLVQSGAEVKKPGASVKVSCKASGYDFTYYGISWVRQAPGQGLEWMGWISTYNGNTHYAPSLQGRVTMTTDTSTRTAYMELRSLRSDDTAVYYCARENYYGSGAYRGGMDVWGQGTTVTVSS
VL: EIVLTQSPATLSLSPGERATLSCRASQSVSSYLAWYQQKPGQAPRLLIYDASNRATGIPARFSGSGSGTDFTLTISSLEPEDFAVYYCQQRSNWPWTFGQGTKVEIKR
notes: IgG1/kappa variant of TL1A-0002
B2: TL1A-0073 (antibody, IgG1, V domains shown)
VH: B1 VH with G56T, P62Q, S63K
VL: B1 VL
notes: as for B1
B3: TL1A-0076 (antibody, IgG1, V domains shown)
VH: B1 VH with G56D
VL: B1 VL
notes: as for B1
B4: TL1A-0028 (antibody, IgG1, V domains shown)
VH: B1 VH with P62R, S63M, Y102W
VL: B1 VL
notes: as for B1
B5: TL1A-0069 (antibody, IgG1, V domains shown)
VH: B1 VH with Y32H, P62R, S63M
VL: B1 VL
notes: as for B1
B6: TL1A-0023 (antibody, IgG1, V domains shown)
VH: B1 VH with T58D
VL: B1 VL
notes: as for B1
B7: TL1A-0068 (antibody, IgG1, V domains shown)
VH: B1 VH with Y31K, P62R, S63M
VL: B1 VL
notes: as for B1
B8: TL1A-0026 (antibody, IgG1, V domains shown)
VH: B1 VH with T58E, P62D
VL: B1 VL
notes: as for B1
B9: TL1A-0021 (antibody, IgG1, V domains shown)
VH: B1 VH with T58D, P62R, S63M
VL: B1 VL
notes: as for B1
B10: TL1A-0061 (antibody, IgG1, V domains shown)
VH: B1 VH with Y27F, P62R, S63M
VL: B1 VL
notes: as for B1
B11: TL1A-0024 (antibody, IgG1, V domains shown)
VH: B1 VH with T58E
VL: B1 VL
notes: as for B1
B12: TL1A-0071 (antibody, IgG1, V domains shown)
VH: B1 VH with I34V, P62R, S63M
VL: B1 VL
notes: as for B1
B13: TL1A-0029 (antibody, IgG1, V domains shown)
VH: B1 VH with P62R, S63M, Y101L
VL: B1 VL
notes: as for B1
B14: TL1A-0019 (antibody, IgG1, V domains shown)
VH: B1 VH with Y60H, P62R, S63M
VL: B1 VL
notes: as for B1
B15: TL1A-0040 (antibody, IgG1, V domains shown)
VH: B1 VH with P62R, S63M, A106D, Y107H
VL: B1 VL
notes: as for B1
B16: TL1A-0038 (antibody, IgG1, V domains shown)
VH: B1 VH with P62R, S63M, A106D, Y107F
VL: B1 VL
notes: as for B1
B17: TL1A-0067 (antibody, IgG1, V domains shown)
VH: B1 VH with Y31F, P62R, S63M
VL: B1 VL
notes: as for B1
B18: TL1A-0030 (antibody, IgG1, V domains shown)
VH: B1 VH with P62R, S63M, A106E
VL: B1 VL
notes: as for B1
B19: TL1A-0063 (antibody, IgG1, V domains shown)
VH: B1 VH with T30S, P62R, S63M
VL: B1 VL
notes: as for B1
B20: TL1A-0062 (antibody, IgG1, V domains shown)
VH: B1 VH with F29Y, P62R, S63M
VL: B1 VL
notes: as for B1
B21: TL1A-0033 (antibody, IgG1, V domains shown)
VH: B1 VH with P62R, S63M, Y107F
VL: B1 VL
notes: as for B1
B22: TL1A-0031 (antibody, IgG1, V domains shown)
VH: B1 VH with P62R, S63M, A106D
VL: B1 VL
notes: as for B1
B23: TL1A-0022 (antibody, IgG1, V domains shown)
VH: B1 VH with T58E, P62R, S63M
VL: B1 VL
notes: as for B1
B24: TL1A-0014 (antibody, IgG1, V domains shown)
VH: B1 VH with P62Q, S63K
VL: B1 VL
notes: as for B1
B25: TL1A-0074 (antibody, IgG1, V domains shown)
VH: B1 VH with G56T
VL: B1 VL
notes: as for B1
B26: TL1A-0027 (antibody, IgG1, V domains shown)
VH: B1 VH with T53A, H59N, P62Q, S63K
VL: B1 VL
notes: as for B1

The target of this assay is T1, recombinant human TL1A. The assay is described as follows: competition ELISA vs bio-TL1A-0002. The procedure:
For this competition ELISA assay procedure, 96-well high binding plates (Corning, product number 3590) were coated with 1 μg/mL recombinant TL1A in 100 μL/well in Phospate Buffered Saline (PBS) overnight at 4° C. Plates were then blocked in PBS+0.02% casein solution and washed with PBS+0.05% Tween-20 following standard ELISA protocol. […] Plates were washed with PBS+0.05% Tween-20 following standard ELISA protocol, and Streptavidin-HRP (Southern Biotech, product number 7100-05) diluted to 1:10,000 in assay buffer was added to plates and incubated for 25-30 minutes at room temperature. Next, the plates were washed with PBS+0.05% Tween-20 following standard ELISA protocol, and then TMB substrate (BioFX Laboratories, catalog number TMBW-0100-01) was added to plates. Reactions were stopped after approximately 5 minutes by adding 0.18 M ortho-phosphoric acid to each well and absorbance was read at 450 nm.
For B1, the “Bioactivity relative to TL1A-0002” value was 1.2 fold and the IC50 was determined as 5.5 nM.
Consider B2, for which the “Bioactivity relative to TL1A-0002” value came to 1.1 fold and the IC50 turned out to be 5 nM.
Regarding B3, the “Bioactivity relative to TL1A-0002” value was found to be 1.2 fold and the IC50 is 5.4 nM.
For B4 the same measures were 1.2 fold and 5.4 nM.
Take B5: the “Bioactivity relative to TL1A-0002” value was 0.9 fold and the IC50 is 4.1 nM.
As to B6, the “Bioactivity relative to TL1A-0002” value is 1.3 fold and the IC50 is 5.6 nM.
For B7 the same measures were 1 fold and 4.6 nM.
B8: the “Bioactivity relative to TL1A-0002” value came out at 2 fold and the IC50 was 8.9 nM.
As for B9, the “Bioactivity relative to TL1A-0002” value is 1.3 fold and the IC50 turned out to be 6 nM.
For B10 the same measures were 1 fold and 4.6 nM.
With B11, the “Bioactivity relative to TL1A-0002” value is 1.2 fold and the IC50 is 5.4 nM.
Taken in the same sequence, the figures for B12 were 0.9 fold and 3.9 nM.
Taken in the same sequence, the figures for B13 were 1.7 fold and 7.8 nM.
For B14 the same measures were 1.1 fold and 5 nM.
Consider B15, for which the “Bioactivity relative to TL1A-0002” value was 1 fold and the IC50 amounted to 4.7 nM.
Regarding B16, the “Bioactivity relative to TL1A-0002” value was determined as 1.6 fold and the IC50 is 7.2 nM.
Consider B17, for which the “Bioactivity relative to TL1A-0002” value was determined as 1.1 fold and the IC50 was 5.1 nM.
Turning to B18, the “Bioactivity relative to TL1A-0002” value was 1.4 fold and the IC50 came out at 6.1 nM.
B19: the “Bioactivity relative to TL1A-0002” value is 0.9 fold and the IC50 worked out at 4.1 nM.
Taken in the same sequence, the figures for B20 were 0.9 fold and 4 nM.
Turning to B21, the “Bioactivity relative to TL1A-0002” value is 0.8 fold and the IC50 is 3.6 nM.
For B22 the same measures were 1.6 fold and 7.4 nM.
With B23, the “Bioactivity relative to TL1A-0002” value amounted to 1.5 fold and the IC50 turned out to be 6.9 nM.
For the molecule B24, the “Bioactivity relative to TL1A-0002” value stood at 1.1 fold and the IC50 stood at 5.1 nM.
In the case of B25, the “Bioactivity relative to TL1A-0002” value was 1 fold and the half-inhibitory concentration (IC50) came out at 4.5 nM.
With B26, the “Bioactivity relative to TL1A-0002” value came out at 1.9 fold and the IC50 turned out to be 8.3 nM.

Broadly, the IC50 is the concentration that gives 50% inhibition.
